Patent publication US20190038762A1 (Takeda / Millennium, published 2019)

Biological target: T1, guanylyl cyclase C (GCC), myc-tagged, full-length, expressed on HEK293-GCC#2 cells (UniProt P25092 24-1073, limits assumed)
T1 construct: whole, on cells; also called GCC antigen; GCC-expressing cells
Assay: indirect immunofluorescence flow cytometry on HEK293-GCC#2 cells
Method: HEK293-GCC#2 and vector control cells were grown in standard cell culture medium supplemented with 10% fetal bovine serum (FBS). […] This centrifugation-wash step was repeated once more before cells were re-suspended at a concentration of 5×10⁶ cells/mL in 3% FBS/PBS, and added to the experimental wells of a V-bottom 96-well plate in 100 μL aliquots (˜500,000 cells). The plate was centrifuged for 5 min at 1200 rpm.
Following centrifugation, supernatant was removed from each well and replaced with 50 μL of primary antibody-drug conjugate solution. […] The 96-well dish was covered and incubated at 4° C. (on ice) for 1 hour before solutions were removed from the wells and the cells were washed twice in 100 μL of 3% FBS/PBS (without Ca²⁺ or Mg²⁺).
After completion of the second wash, 50 μL of secondary antibody solution was added to each experimental well, and the covered 96-well plate was placed at 4° C. (on ice) for 1 hour. The plate was then centrifuged, and the supernatant was replaced with 100 μL of 3% FBS/PBS (without Ca²⁺ or Mg²⁺). This centrifugation-wash step was repeated for a total of two cycles. The cells were finally reconstituted in 200 μL of PBS (without Ca²⁺ or Mg²⁺) and loaded onto the BD FACS Canto flow cytometer (BD Biosciences, Franklin Lakes, N.J.). Data were analyzed using FACS II Canto system software and the appropriate filter settings.

T1 sequence (P25092 24-1073 limits assumed): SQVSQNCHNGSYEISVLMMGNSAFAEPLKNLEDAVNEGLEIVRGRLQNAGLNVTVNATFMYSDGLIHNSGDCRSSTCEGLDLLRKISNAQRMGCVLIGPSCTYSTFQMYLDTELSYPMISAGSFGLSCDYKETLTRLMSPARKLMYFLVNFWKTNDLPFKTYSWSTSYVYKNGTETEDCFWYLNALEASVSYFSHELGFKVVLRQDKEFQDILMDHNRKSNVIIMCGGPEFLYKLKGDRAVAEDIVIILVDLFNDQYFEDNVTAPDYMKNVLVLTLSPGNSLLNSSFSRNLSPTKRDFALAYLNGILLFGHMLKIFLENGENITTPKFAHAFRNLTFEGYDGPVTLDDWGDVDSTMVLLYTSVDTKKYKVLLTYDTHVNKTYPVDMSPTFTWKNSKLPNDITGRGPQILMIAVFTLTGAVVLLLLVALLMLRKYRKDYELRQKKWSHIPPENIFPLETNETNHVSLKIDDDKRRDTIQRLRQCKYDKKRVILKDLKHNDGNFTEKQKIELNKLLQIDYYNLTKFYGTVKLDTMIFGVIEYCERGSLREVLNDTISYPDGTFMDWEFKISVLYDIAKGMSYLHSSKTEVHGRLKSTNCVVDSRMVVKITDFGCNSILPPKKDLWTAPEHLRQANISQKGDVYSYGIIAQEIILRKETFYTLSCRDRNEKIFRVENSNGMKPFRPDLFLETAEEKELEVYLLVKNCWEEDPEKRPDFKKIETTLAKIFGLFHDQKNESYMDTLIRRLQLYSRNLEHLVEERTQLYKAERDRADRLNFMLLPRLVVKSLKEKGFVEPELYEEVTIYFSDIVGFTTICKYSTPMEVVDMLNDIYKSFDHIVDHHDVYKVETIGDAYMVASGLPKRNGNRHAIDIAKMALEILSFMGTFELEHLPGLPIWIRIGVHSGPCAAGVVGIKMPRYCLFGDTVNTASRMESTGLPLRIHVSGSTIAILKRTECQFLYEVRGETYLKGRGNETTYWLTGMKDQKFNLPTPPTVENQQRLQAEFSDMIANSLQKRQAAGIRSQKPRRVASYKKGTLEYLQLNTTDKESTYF

B1: 5F9 antibody (anti-GCC human monoclonal antibody 5F9, hIgG1/hKappa) (antibody, V domains shown)
VH: QVQLQQWGAGLLKPSETLSLTCAVFGGSFSGYYWSWIRQPPGKGLEWIGEINHRGNTNDNPSLKSRVTISVDTSKNQFALKLSSVTAADTAVYYCARERGYTYGNFDHWGQGTLVTVSS
VL: EIVMTQSPATLSVSPGERATLSCRASQSVSRNLAWYQQKPGQAPRLLIYGASTRATGIPARFSGSGSGTEFTLTIGSLQSEDFAVYYCQQYKTWPRTFGQGTNVEIKR
notes: The hybridoma antibody was IgG2, kappa; also called hu5F9; Human 5F9 antibody
Affinity: 35 ng/mL
